Laboratory results as given in patent US20220227830A1, “QD DOSING OF GIP RECEPTOR AGONIST PEPTIDE COMPOUNDS AND USES THEREOF” (Takeda Pharmaceutical Company Limited, priority 2020, published 2022).
Starred links: 1 amine or outer side, 2 acyl side, 3 side chain; linkers in the order of their positions; H or OH if unused. Non-standard residues stand in square brackets, D forms with d. Groups on a side chain read outwards from the residue. No end group written: not given here. *: point of attachment. 2OEGgEgE‑C15DA = 2OEGgEgE-C15 diacid linker-lipid on the Lys side chain, O=C(O)CCCCCCCCCCCCCC(=O)N[C@@H](CCC(=O)N[C@@H](CCC(=O)NCCOCCOCC(=O)NCCOCCOCC(=O)*)C(=O)O)C(=O)O; GGEEE‑C15DA = Gly-Gly-Glu-Glu-Glu linker (GGEEE) joined to a C15 diacid lipid (C15DA), on the Lys side chain; C16 diacid = O=C(O)CCCCCCCCCCCCCCC(=O)*; C15 diacid = O=C(O)CCCCCCCCCCCCCC(=O)*; γGlu = O=C(O)[C@H](CCC(=O)[*:2])N[*:1]; NMeY = CN[C@@H](Cc1ccc(O)cc1)C(=O)O; AEEA = NCCOCCOCC(=O)O; Aib = CC(C)(N)C(=O)O

B1: Compound 103 (peptide)
peptide: [NMeY][Aib]EGTFISDYSI[Aib]LDR[Aib]AQ[Aib]K(2OEGgEgE‑C15DA)FVNWLLAQSPSSGAPPPS-NH2
modifications: N-terminus assumed
SMILES: CC[C@H](C)[C@H](NC(=O)[C@H](Cc1ccccc1)NC(=O)[C@@H](NC(=O)CNC(=O)[C@H](CCC(=O)O)NC(=O)C(C)(C)NC(=O)[C@H](Cc1ccc(O)cc1)NC)[C@@H](C)O)C(=O)N[C@@H](CO)C(=O)N[C@@H](CC(=O)O)C(=O)N[C@@H](Cc1ccc(O)cc1)C(=O)N[C@@H](CO)C(=O)N[C@H](C(=O)NC(C)(C)C(=O)N[C@@H](CC(C)C)C(=O)N[C@@H](CC(=O)O)C(=O)N[C@@H](CCCNC(=N)N)C(=O)NC(C)(C)C(=O)N[C@@H](C)C(=O)N[C@@H](CCC(N)=O)C(=O)NC(C)(C)C(=O)N[C@@H](CCCCNC(=O)COCCOCCNC(=O)COCCOCCNC(=O)CC[C@H](NC(=O)CC[C@H](NC(=O)CCCCCCCCCCCCCC(=O)O)C(=O)O)C(=O)O)C(=O)N[C@@H](Cc1ccccc1)C(=O)N[C@H](C(=O)N[C@@H](CC(N)=O)C(=O)N[C@@H](Cc1c[nH]c2ccccc12)C(=O)N[C@@H](CC(C)C)C(=O)N[C@@H](CC(C)C)C(=O)N[C@@H](C)C(=O)N[C@@H](CCC(N)=O)C(=O)N[C@@H](CO)C(=O)N1CCC[C@H]1C(=O)N[C@@H](CO)C(=O)N[C@@H](CO)C(=O)NCC(=O)N[C@@H](C)C(=O)N1CCC[C@H]1C(=O)N1CCC[C@H]1C(=O)N1CCC[C@H]1C(=O)N[C@@H](CO)C(N)=O)C(C)C)[C@@H](C)CC
B2: Compound 98 (peptide)
peptide: [NMeY][Aib]EGTFISDYSIALDR[Aib]AQ[Aib]DFVNWLLAK([AEEA-AEEA-γGlu-C15 diacid])SPSSG-NH2
modifications: N-terminus assumed
SMILES: CC[C@H](C)[C@H](NC(=O)[C@H](CO)NC(=O)[C@H](Cc1ccc(O)cc1)NC(=O)[C@H](CC(=O)O)NC(=O)[C@H](CO)NC(=O)[C@@H](NC(=O)[C@H](Cc1ccccc1)NC(=O)[C@@H](NC(=O)CNC(=O)[C@H](CCC(=O)O)NC(=O)C(C)(C)NC(=O)[C@H](Cc1ccc(O)cc1)NC)[C@@H](C)O)[C@@H](C)CC)C(=O)N[C@@H](C)C(=O)N[C@@H](CC(C)C)C(=O)N[C@@H](CC(=O)O)C(=O)N[C@@H](CCCNC(=N)N)C(=O)NC(C)(C)C(=O)N[C@@H](C)C(=O)N[C@@H](CCC(N)=O)C(=O)NC(C)(C)C(=O)N[C@@H](CC(=O)O)C(=O)N[C@@H](Cc1ccccc1)C(=O)N[C@H](C(=O)N[C@@H](CC(N)=O)C(=O)N[C@@H](Cc1c[nH]c2ccccc12)C(=O)N[C@@H](CC(C)C)C(=O)N[C@@H](CC(C)C)C(=O)N[C@@H](C)C(=O)N[C@@H](CCCCNC(=O)COCCOCCNC(=O)COCCOCCNC(=O)CC[C@H](NC(=O)CCCCCCCCCCCCCC(=O)O)C(=O)O)C(=O)N[C@@H](CO)C(=O)N1CCC[C@H]1C(=O)N[C@@H](CO)C(=O)N[C@@H](CO)C(=O)NCC(N)=O)C(C)C
B3: Compound 101 (peptide)
peptide: [NMeY][Aib]EGTFISDYSIALDR[Aib]AQ[Aib]NFVNWLLAQK(2OEGgEgE‑C15DA)PSSGAPPPS-NH2
modifications: N-terminus assumed
SMILES: CC[C@H](C)[C@H](NC(=O)[C@H](CO)NC(=O)[C@H](Cc1ccc(O)cc1)NC(=O)[C@H](CC(=O)O)NC(=O)[C@H](CO)NC(=O)[C@@H](NC(=O)[C@H](Cc1ccccc1)NC(=O)[C@@H](NC(=O)CNC(=O)[C@H](CCC(=O)O)NC(=O)C(C)(C)NC(=O)[C@H](Cc1ccc(O)cc1)NC)[C@@H](C)O)[C@@H](C)CC)C(=O)N[C@@H](C)C(=O)N[C@@H](CC(C)C)C(=O)N[C@@H](CC(=O)O)C(=O)N[C@@H](CCCNC(=N)N)C(=O)NC(C)(C)C(=O)N[C@@H](C)C(=O)N[C@@H](CCC(N)=O)C(=O)NC(C)(C)C(=O)N[C@@H](CC(N)=O)C(=O)N[C@@H](Cc1ccccc1)C(=O)N[C@H](C(=O)N[C@@H](CC(N)=O)C(=O)N[C@@H](Cc1c[nH]c2ccccc12)C(=O)N[C@@H](CC(C)C)C(=O)N[C@@H](CC(C)C)C(=O)N[C@@H](C)C(=O)N[C@@H](CCC(N)=O)C(=O)N[C@@H](CCCCNC(=O)COCCOCCNC(=O)COCCOCCNC(=O)CC[C@H](NC(=O)CC[C@H](NC(=O)CCCCCCCCCCCCCC(=O)O)C(=O)O)C(=O)O)C(=O)N1CCC[C@H]1C(=O)N[C@@H](CO)C(=O)N[C@@H](CO)C(=O)NCC(=O)N[C@@H](C)C(=O)N1CCC[C@H]1C(=O)N1CCC[C@H]1C(=O)N1CCC[C@H]1C(=O)N[C@@H](CO)C(N)=O)C(C)C

Assays:
[1] = target: T1, full-length human GIPR with an N-terminal FLAG tag (human, UniProt P48546 22-466); assay: cell-based or functional assay
T1 sequence (looked up): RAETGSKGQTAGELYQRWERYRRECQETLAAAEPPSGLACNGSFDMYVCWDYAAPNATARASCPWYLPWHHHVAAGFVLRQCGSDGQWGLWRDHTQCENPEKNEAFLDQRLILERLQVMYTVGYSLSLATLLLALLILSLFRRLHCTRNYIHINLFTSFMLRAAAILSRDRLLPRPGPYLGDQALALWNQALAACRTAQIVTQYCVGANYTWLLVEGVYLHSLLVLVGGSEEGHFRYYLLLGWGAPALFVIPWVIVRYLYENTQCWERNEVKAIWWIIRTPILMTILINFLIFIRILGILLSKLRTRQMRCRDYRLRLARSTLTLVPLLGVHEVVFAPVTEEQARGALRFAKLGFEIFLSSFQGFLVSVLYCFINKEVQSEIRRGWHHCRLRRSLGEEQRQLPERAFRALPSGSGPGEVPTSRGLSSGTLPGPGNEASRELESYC

[2] = target: full-length human GLP-1R with an N-terminal FLAG tag (human, UniProt P43220 24-463); assay: cell-based or functional assay

Row | Binder | Human GIPR cAMP, HEK293T EC50 [1] [nM] | Human GLP1R cAMP HEK293T EC50 [2] [nM]
1 | [NMeY][Aib]EGTFISDYSIALDR[Aib]K(GGEEE‑C15DA)Q[Aib]NFVNWLLAQSPSSGAPPPS-NH2 [Compound 105] | 0.0003 | 1000
2 | [NMeY][Aib]EGTFISDYSIALDRK([AEEA-AEEA-γGlu-C15 diacid])AQ[Aib]DFVNWLLAQRPSSGAPPPS-NH2 [Compound 104] | 0.0004 | 1000
3 | [NMeY][Aib]EGTFISDYSIALDR[Aib]KQ[Aib]DFVNWLLAQSPSSGAPPPS-NH2 (not fully specified (residue 18, N-terminus)) [Compound 106] | 0.0005 | 120
4 | B1 | 0.0005 | 148
5 | [NMeY][Aib]EGTFISDYSI[Aib]LDR[Aib]AQ[Aib]DFVNWLLAQK(2OEGgE‑C15DA)PSSGAPPPS-NH2 [Compound 100] | 0.0007 | 1000
6 | [NMeY][Aib]EGTFISDYSIAK([GGEEE-C15 diacid])DR[Aib]AQ[Aib]NFVNWLLAQRPSSGAPPPS-NH2 [Compound 99] | 0.0002 | 1000
7 | [NMeY][Aib]EGTFISDYSI[Aib]LDR[Aib]AQ[Aib]K(2OEGgE‑C15DA)FVNWLLAQSPSSGAPPPS-NH2 [Compound 102] | 0.0005 | 31.6
8 | B2 | 0.0006 | 1000
9 | B3 | 0.0002 | 550
10 | [NMeY][Aib]EGTFISDYSIALDRIHQ[Aib]K([AEEA-AEEA-γGlu-C16 diacid])FVNWLLAQK [Compound 9] | 0.0002 | 95.5
